B1: G186C|P217C, O00095 (parent)
chain: MKFLQVLPALIPAALAQTSCDQWATFTGNGYTVSNNLWGASAGSGFGCVTAVSLSGGASWHADWQWSGGQNNVKSYQNSQIAIPQKRTVNSISSMPTTASWSYSGSNIRANVAYDLFTAANPNHVTYSGDYELMIWLGKYGDIGPIGSSQGTVNVGGQSWTLYYGYNGAMQVYSFVAQTNTTNYSGDVKNFFNYLRDNKGYNAAGQYVLSYQFGTEPFTGSGTLNVASWTASIN
B2: C236S, Q8NJY3 (parent)
chain: MLKSALLLGAAAVSVQSASIPTIPANLEPRQIRSLCELYGYWSGNGYELLNNLWGKDTATSGWQCTYLDGTNNGGIQWSTAWEWQGAPDNVKSYPYVGKQIQRGRKISDINSMRTSVSWTYDRTDIRANVAYDVFTARDPDHPNWGGDYELMIWLARYGGIYPIGTFHSQVNLAGRTWDLWTGYNGNMRVYSFLPPSGDIRDFSCDIKDFFNYLERNHGYPAREQNLIVYQVGTECFTGGPARFTCRDFRADLW

Columns and labels:
[1] = variants of: B1; settings: Hypocrea jecorina; pH 8; Thermal; CD; Bis-Tris propane ammonium acetate 0.05 M 0.05 M; reversible: No; structure 1H8V; whole UniProt chain shown
[2] = variants of: B2; settings: Trichocladium griseum; pH 8; Thermal; CD; Bis-Tris propane ammonium acetate 0.05 M 0.05 M; reversible: No; structure 1OLR; whole UniProt chain shown

For MKFLQVLPALIPAALAQTSCDQWATFTGNGYTVSNNLWGASAGSGFGCVTAVSLSGGASWHADWQWSGGQNNVKSYQNSQIAIPQKRTVNSISSMPTTASWSYSGSNIRANVAYDLFTAANPNHVTYSGDYELMIWLGKYGDIGPIGSSQGTVNVGGQSWTLYYGYNGAMQVYSFVAQTNTTNYSCDVKNFFNYLRDNKGYNAAGQYVLSYQFGTECFTGSGTLNVASWTASIN [G186C P217C], the Tm [1] was 55.1 °C and the “change of melting temperature, mutant - wild type (higher = more stable)” value (“change of melting temperature, mutant” below) [1] was 0.7 °C.

In the case of MKFLQVLPALIPAALAQTSCDQWATFTGNGYTVSNNLWGASAGSGFGCVTAVSLSGGASWHADWQWSGGQNNVKSYQNSQIAIPQKRTVNSISSMPTTASWSYSGSNIRANVAYDLFTAANPNHVTYSGDYELMIWLGKYGDIGPIGSSQGTVNVGGQSWTLYYGYNGAMQVYSFVAQTNTTNYSGDVKNFFNYLRDNKGYNAAGQYVLSYQFGTECFTGSGTLNCASWTASIN [P217C V226C], the Tm [1] is reported as 55.1 °C and the “change of melting temperature, mutant” value [1] is reported as 0.7 °C.

With MKFLQVLPALIPAALAQTSCDQWATFTGNGYTVSNNLWGASAGSGFGCVTAVSLSGGASWHADWQWSGGQNNVKSYQNSQIAIPQKRTVNSISSMPTTASWSYSGSNIRANVAYDLFTAANPNHVTYSGDYELMIWLGKYGDIGPIGSSQGTVNVGGQSWTLYYGYNGAMQVYSFVAQTNTTNYSCDVKNFFNYLRDNKGYNAAGQYVLSYQFGTEPFTGSGTLNVASWTASIN [G186C] the Tm [1] was 56.5 °C and the “change of melting temperature, mutant” value [1] was 2.1 °C.

In the case of MKFLQVLPALIPAALAQTSCDQWATFTGNGYTVSNNLWGASAGSGFGCVTAVSLSGGASWHADWQWSGGQNNVKSYQNSQIAIPQKRTVNSISSMPTTASWSYSGSNIRANVAYDLFTAANPNHVTYSGDYELMIWLGKYGDIGPIGSSQGTVNVGGQSWTLYYGYNGAMQVYSFVAQTNTTNYSGDVKNFFNYLRDNKGYNAAGQYVLSYQFGTEPFTGSGTLNCASWTASIN [V226C], the Tm [1] is reported as 54.5 °C and the “change of melting temperature, mutant” value [1] is reported as 0.1 °C.

With MKFLQVLPALIPAALAQTSCDQWATFTGNGYTVSNNLWGASAGSGFGCVTAVSLSGGASWHADWQWSGGQNNVKSYQNSQIAIPQKRTVNSISSMPTTASWSYSGSNIRANVAYDLFTAANPNHVTYSGDYELMIWLGKYGDIGPIGSSQGTVNVGGQSWTLYYGYNGAMQVYSFVAQTNTTNYSGDVKNFFNYLRDNKGYNAAGQYVLSYQFGTECFTGSGTLNVASWTASIN [P217C] the Tm [1] was 58.3 °C and the “change of melting temperature, mutant” value [1] was 3.9 °C.

In the case of MKFLQVLPALIPAALAQTSCDQWATFTGNGYTVSNNLWGASAGSGFGCVTAVSLSGGASWHADWQWSGGQNNVKSYQNSQIAIPQKRTVNSISSMPTTASWSYSGSNIRANVAYDLFTAANPNHVTYSGDYELMIWLGKYGDIGPIGSSQGTVNVGGQSWTLYYGYNGAMQVYSFVAQTNTTNYSCDVKNFFNYLRDNKGYNAAGQYVLSYQFGTECFTGSGTLNCASWTASIN [P217C V226C G186C], the Tm [1] is reported as 54.5 °C and the “change of melting temperature, mutant” value [1] is reported as 0.1 °C.

For MLKSALLLGAAAVSVQSASIPTIPANLEPRQIRSLCELYGYWSGNGYELLNNLWGKDTATSGWQCTYLDGTNNGGIQWSTAWEWQGAPDNVKSYPYVGKQIQRGRKISDINSMRTSVSWTYDRTDIRANVAYDVFTARDPDHPNWGGDYELMIWLARYGGIYPIGTFHSQVNLAGRTWDLWTGYNGNMRVYSFLPPSGDIRDFSCDIKDFFNYLERNHGYPAREQNLIVYQVGTESFTGGPARFTCRDFRADLW [C236S], the Tm [2] was 63.3 °C and the “change of melting temperature, mutant” value [2] was -5.4 °C.

For MLKSALLLGAAAVSVQSASIPTIPANLEPRQIRSLCELYGYWSGNGYELLNNLWGKDTATSGWQCTYLDGTNNGGIQWSTAWEWQGAPDNVKSYPYVGKQIQRGRKISDINSMRTSVSWTYDRTDIRANVAYDVFTARDPDHPNWGGDYELMIWLARYGGIYPIGTFHSQVNLAGRTWDLWTGYNGNMRVYSFLPPSGDIRDFSCDIKDFFNYLERNHGYPAREQNLIVYQVGTEPFTGGPARFTCRDFRADLW [C236P], the Tm [2] was 59.5 °C and the “change of melting temperature, mutant” value [2] was -9.2 °C.

For MLKSALLLGAAAVSVQSASIPTIPANLEPRQIRSLCELYGYWSGNGYELLNNLWGKDTATSGWQCTYLDGTNNGGIQWSTAWEWQGAPDNVKSYPYVGKQIQRGRKISDINSMRTSVSWTYDRTDIRANVAYDVFTARDPDHPNWGGDYELMIWLARYGGIYPIGTFHSQVNLAGRTWDLWTGYNGNMRVYSFLPPSGDIRDFSCDIKDFFNYLERNHGYPAREQNLIVYQVGTECFTGGPARFTSRDFRADLW [C246S], the Tm [2] was 63.1 °C and the “change of melting temperature, mutant” value [2] was -5.6 °C.

With MLKSALLLGAAAVSVQSASIPTIPANLEPRQIRSLCELYGYWSGNGYELLNNLWGKDTATSGWQCTYLDGTNNGGIQWSTAWEWQGAPDNVKSYPYVGKQIQRGRKISDINSMRTSVSWTYDRTDIRANVAYDVFTARDPDHPNWGGDYELMIWLARYGGIYPIGTFHSQVNLAGRTWDLWTGYNGNMRVYSFLPPSGDIRDFSCDIKDFFNYLERNHGYPAREQNLIVYQVGTECFTGGPARFTVRDFRADLW [C246V] the Tm [2] was 69.5 °C and the “change of melting temperature, mutant” value [2] was 0.8 °C.

With MLKSALLLGAAAVSVQSASIPTIPANLEPRQIRSLCELYGYWSGNGYELLNNLWGKDTATSGWQCTYLDGTNNGGIQWSTAWEWQGAPDNVKSYPYVGKQIQRGRKISDINSMRTSVSWTYDRTDIRANVAYDVFTARDPDHPNWGGDYELMIWLARYGGIYPIGTFHSQVNLAGRTWDLWTGYNGNMRVYSFLPPSGDIRDFSSDIKDFFNYLERNHGYPAREQNLIVYQVGTECFTGGPARFTCRDFRADLW [C205S] the Tm [2] was 68.9 °C and the “change of melting temperature, mutant” value [2] was 0.2 °C.

In the case of MLKSALLLGAAAVSVQSASIPTIPANLEPRQIRSLCELYGYWSGNGYELLNNLWGKDTATSGWQCTYLDGTNNGGIQWSTAWEWQGAPDNVKSYPYVGKQIQRGRKISDINSMRTSVSWTYDRTDIRANVAYDVFTARDPDHPNWGGDYELMIWLARYGGIYPIGTFHSQVNLAGRTWDLWTGYNGNMRVYSFLPPSGDIRDFSGDIKDFFNYLERNHGYPAREQNLIVYQVGTECFTGGPARFTCRDFRADLW [C205G], the Tm [2] is reported as 69.9 °C and the “change of melting temperature, mutant” value [2] is reported as 1.2 °C.
